Measurements from the Human Domainome abundance scans (Beltran et al. 2025).
± gives the uncertainty stated by the source.

B1: Transcriptional regulator ERG, residues 117 to 197; numbered along this chain, P11308 (parent)
chain: NMTTNERRVIVPADPTLWSTDHVRQWLEWAVKEYGLPDVNILLFQNIDGKELCKMTKDDFQRLTPSYNADILLSHLHYLRE

Variants of: B1
Test: abundance fitness (aPCA) (normalised: wild type 0, dead -1); higher = more abundant; growth selection in yeast, the domain comes from the species named
Conditions: Homo sapiens
Variant NMTTNERRVIVPADDTLWSTDHVRQWLEWAVKEYGLPDVNILLFQNIDGKELCKMTKDDFQRLTPSYNADILLSHLHYLRE [P15D] has an abundance fitness of -0.94 ± 0.17.
With NMTTNERRVIVPADMTLWSTDHVRQWLEWAVKEYGLPDVNILLFQNIDGKELCKMTKDDFQRLTPSYNADILLSHLHYLRE [P15M] the abundance fitness was -0.638 ± 0.13.
With NMTTNERRVIVPADNTLWSTDHVRQWLEWAVKEYGLPDVNILLFQNIDGKELCKMTKDDFQRLTPSYNADILLSHLHYLRE [P15N] the abundance fitness was -0.967 ± 0.19.
In the case of NMTTNERRVIVPADFTLWSTDHVRQWLEWAVKEYGLPDVNILLFQNIDGKELCKMTKDDFQRLTPSYNADILLSHLHYLRE [P15F], the abundance fitness is reported as -0.273 ± 0.085.
Work on NMTTNERRVIVPADATLWSTDHVRQWLEWAVKEYGLPDVNILLFQNIDGKELCKMTKDDFQRLTPSYNADILLSHLHYLRE [P15A] yielded an abundance fitness of -0.269 ± 0.053.
With NMTTNERRVIVPADWTLWSTDHVRQWLEWAVKEYGLPDVNILLFQNIDGKELCKMTKDDFQRLTPSYNADILLSHLHYLRE [P15W] the abundance fitness was -0.516 ± 0.091.
NMTTNERRVIVPADITLWSTDHVRQWLEWAVKEYGLPDVNILLFQNIDGKELCKMTKDDFQRLTPSYNADILLSHLHYLRE [P15I] gave an abundance fitness of -0.171 ± 0.072.
NMTTNERRVIVPADCTLWSTDHVRQWLEWAVKEYGLPDVNILLFQNIDGKELCKMTKDDFQRLTPSYNADILLSHLHYLRE [P15C] showed an abundance fitness of -0.323 ± 0.069.
For NMTTNERRVIVPADHTLWSTDHVRQWLEWAVKEYGLPDVNILLFQNIDGKELCKMTKDDFQRLTPSYNADILLSHLHYLRE [P15H], the abundance fitness was -0.86 ± 0.19.
Variant NMTTNERRVIVPADLTLWSTDHVRQWLEWAVKEYGLPDVNILLFQNIDGKELCKMTKDDFQRLTPSYNADILLSHLHYLRE [P15L] has an abundance fitness of -0.41 ± 0.056.
NMTTNERRVIVPADSTLWSTDHVRQWLEWAVKEYGLPDVNILLFQNIDGKELCKMTKDDFQRLTPSYNADILLSHLHYLRE [P15S] showed an abundance fitness of -0.611 ± 0.076.
Work on NMTTNERRVIVPADQTLWSTDHVRQWLEWAVKEYGLPDVNILLFQNIDGKELCKMTKDDFQRLTPSYNADILLSHLHYLRE [P15Q] yielded an abundance fitness of -0.495 ± 0.092.
NMTTNERRVIVPADGTLWSTDHVRQWLEWAVKEYGLPDVNILLFQNIDGKELCKMTKDDFQRLTPSYNADILLSHLHYLRE [P15G] gave an abundance fitness of -0.803 ± 0.088.
Variant NMTTNERRVIVPADKTLWSTDHVRQWLEWAVKEYGLPDVNILLFQNIDGKELCKMTKDDFQRLTPSYNADILLSHLHYLRE [P15K] has an abundance fitness of -0.915 ± 0.17.
With NMTTNERRVIVPADETLWSTDHVRQWLEWAVKEYGLPDVNILLFQNIDGKELCKMTKDDFQRLTPSYNADILLSHLHYLRE [P15E] the abundance fitness was -0.86 ± 0.15.
In the case of NMTTNERRVIVPADRTLWSTDHVRQWLEWAVKEYGLPDVNILLFQNIDGKELCKMTKDDFQRLTPSYNADILLSHLHYLRE [P15R], the abundance fitness is reported as -0.835 ± 0.09.
In the case of NMTTNERRVIVPADYTLWSTDHVRQWLEWAVKEYGLPDVNILLFQNIDGKELCKMTKDDFQRLTPSYNADILLSHLHYLRE [P15Y], the abundance fitness is reported as -0.266 ± 0.065.
With NMTTNERRVIVPADVTLWSTDHVRQWLEWAVKEYGLPDVNILLFQNIDGKELCKMTKDDFQRLTPSYNADILLSHLHYLRE [P15V] the abundance fitness was -0.267 ± 0.047.
For NMTTNERRVIVPADTTLWSTDHVRQWLEWAVKEYGLPDVNILLFQNIDGKELCKMTKDDFQRLTPSYNADILLSHLHYLRE [P15T], the abundance fitness was -0.632 ± 0.085.
NMTTNERRVIVPIDPTLWSTDHVRQWLEWAVKEYGLPDVNILLFQNIDGKELCKMTKDDFQRLTPSYNADILLSHLHYLRE [A13I] showed an abundance fitness of 0.056 ± 0.068.
In the case of NMTTNERRVIVPYDPTLWSTDHVRQWLEWAVKEYGLPDVNILLFQNIDGKELCKMTKDDFQRLTPSYNADILLSHLHYLRE [A13Y], the abundance fitness is reported as -0.075 ± 0.087.
With NMTTNERRVIVPQDPTLWSTDHVRQWLEWAVKEYGLPDVNILLFQNIDGKELCKMTKDDFQRLTPSYNADILLSHLHYLRE [A13Q] the abundance fitness was 0.11 ± 0.06.
In the case of NMTTNERRVIVPHDPTLWSTDHVRQWLEWAVKEYGLPDVNILLFQNIDGKELCKMTKDDFQRLTPSYNADILLSHLHYLRE [A13H], the abundance fitness is reported as 0.045 ± 0.12.
With NMTTNERRVIVPMDPTLWSTDHVRQWLEWAVKEYGLPDVNILLFQNIDGKELCKMTKDDFQRLTPSYNADILLSHLHYLRE [A13M] the abundance fitness was -0.033 ± 0.074.
With NMTTNERRVIVPVDPTLWSTDHVRQWLEWAVKEYGLPDVNILLFQNIDGKELCKMTKDDFQRLTPSYNADILLSHLHYLRE [A13V] the abundance fitness was -0.01 ± 0.044.
NMTTNERRVIVPNDPTLWSTDHVRQWLEWAVKEYGLPDVNILLFQNIDGKELCKMTKDDFQRLTPSYNADILLSHLHYLRE [A13N] gave an abundance fitness of 0.06 ± 0.088.
In the case of NMTTNERRVIVPWDPTLWSTDHVRQWLEWAVKEYGLPDVNILLFQNIDGKELCKMTKDDFQRLTPSYNADILLSHLHYLRE [A13W], the abundance fitness is reported as -0.122 ± 0.051.
Variant NMTTNERRVIVPTDPTLWSTDHVRQWLEWAVKEYGLPDVNILLFQNIDGKELCKMTKDDFQRLTPSYNADILLSHLHYLRE [A13T] has an abundance fitness of 0.108 ± 0.065.
NMTTNERRVIVPGDPTLWSTDHVRQWLEWAVKEYGLPDVNILLFQNIDGKELCKMTKDDFQRLTPSYNADILLSHLHYLRE [A13G] showed an abundance fitness of 0.061 ± 0.037.
NMTTNERRVIVPPDPTLWSTDHVRQWLEWAVKEYGLPDVNILLFQNIDGKELCKMTKDDFQRLTPSYNADILLSHLHYLRE [A13P] showed an abundance fitness of 0.116 ± 0.062.
Work on NMTTNERRVIVPFDPTLWSTDHVRQWLEWAVKEYGLPDVNILLFQNIDGKELCKMTKDDFQRLTPSYNADILLSHLHYLRE [A13F] yielded an abundance fitness of -0.074 ± 0.072.
For NMTTNERRVIVPDDPTLWSTDHVRQWLEWAVKEYGLPDVNILLFQNIDGKELCKMTKDDFQRLTPSYNADILLSHLHYLRE [A13D], the abundance fitness was 0.235 ± 0.063.
For NMTTNERRVIVPKDPTLWSTDHVRQWLEWAVKEYGLPDVNILLFQNIDGKELCKMTKDDFQRLTPSYNADILLSHLHYLRE [A13K], the abundance fitness was -0.05 ± 0.062.
NMTTNERRVIVPRDPTLWSTDHVRQWLEWAVKEYGLPDVNILLFQNIDGKELCKMTKDDFQRLTPSYNADILLSHLHYLRE [A13R] gave an abundance fitness of 0.043 ± 0.035.
